# Source: patent US20220177587A1, “METHODS AND USES OF VARIANT CD80 FUSION PROTEINS AND RELATED CONSTRUCTS” (Alpine Immune Sciences, Inc., priority 2018, published 2022)
# Where two headings read alike, the source gives them in different places.
# Legend:
# [1] = target: human CTLA-4 (huCTLA4), on stably transduced CHO cells (human) (UniProt P16410); assay: flow cytometry on CHO cells stably expressing huCTLA4, 33.3 nM Fc fusion, PE anti-human Fc
# [2] = target: human PD-L1 (huPD-L1), on stably transduced CHO cells (human) (UniProt Q9NZQ7); assay: flow cytometry on CHO cells stably expressing huPD-L1, 33.3 nM Fc fusion, PE anti-human Fc
# [3] = target: CD28, endogenously expressed on Jurkat/IL2 reporter cells (human) (UniProt P10747); assay: flow cytometry on Jurkat/IL2 reporter cells (endogenous CD28), 33.3 nM Fc fusion, PE anti-human Fc
# [4] = target: PD-L1 (human) (UniProt Q9NZQ7); assay: flow cytometry, Expi293F cells transfected with PD-L1
# [5] = target: CD28 (human) (UniProt P10747); assay: flow cytometry, Jurkat cells (CD28)
# [6] = target: human CTLA-4 (human) (UniProt P16410); assay: flow cytometry, CHO cells stably expressing CTLA4
# [7] = target: CD28 (human) (UniProt P10747); assay: flow cytometry, Jurkat cells (CD28); remark: listed apart in the source
# [8] = target: PD-L1 (human) (UniProt Q9NZQ7); assay: flow cytometry, CHO cells stably expressing PD-L1
# Target sequence in this assay (Q9NZQ7 19-290): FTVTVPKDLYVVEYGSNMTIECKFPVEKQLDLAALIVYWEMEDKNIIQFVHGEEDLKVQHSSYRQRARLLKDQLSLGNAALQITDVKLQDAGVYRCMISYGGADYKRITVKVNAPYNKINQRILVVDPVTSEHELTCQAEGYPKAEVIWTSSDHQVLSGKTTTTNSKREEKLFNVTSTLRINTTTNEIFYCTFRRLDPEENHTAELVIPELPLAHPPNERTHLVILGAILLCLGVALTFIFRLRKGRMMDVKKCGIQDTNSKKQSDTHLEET
# [9] = target: human CTLA-4 (human) (UniProt P16410); assay: flow cytometry, CHO cells expressing CTLA4
# [10] = target: PD-L1 (human) (UniProt Q9NZQ7); assay: flow cytometry, CHO cells expressing PD-L1
# Target sequence in this assay (Q9NZQ7 19-290): as above
# [11] = target: CD28 (human) (UniProt P10747); assay: flow cytometry, Jurkat cells (CD28); remark: listed apart in the source
# [12] = target: human CTLA-4 (human) (UniProt P16410); assay: flow cytometry, CHO cells stably expressing CTLA4; remark: listed apart in the source
# [13] = target: PD-L1 (human) (UniProt Q9NZQ7); assay: flow cytometry, CHO cells stably expressing PD-L1; remark: listed apart in the source
# Target sequence in this assay (Q9NZQ7 19-290): as above
# [14] = target: human CTLA-4 (human) (UniProt P16410); assay: flow cytometry, CHO cells stably expressing CTLA4; remark: listed apart in the source
# [15] = target: PD-L1 (human) (UniProt Q9NZQ7); assay: flow cytometry, CHO cells stably expressing PD-L1; remark: listed apart in the source
# Target sequence in this assay (Q9NZQ7 19-290): as above
# [16] = target: CD28 (human) (UniProt P10747); assay: flow cytometry, Expi293F cells transfected with CD28
# [17] = target: human CTLA-4 (human) (UniProt P16410); assay: flow cytometry, Expi293F cells transfected with CTLA-4
# [18] = target: PD-L1 (human) (UniProt Q9NZQ7); assay: flow cytometry, CHO cells expressing huPD-L1
# Target sequence in this assay (Q9NZQ7 19-290): as above
# [19] = target: human CTLA-4 (human) (UniProt P16410); assay: flow cytometry, CHO cells expressing huCTLA4
# [20] = target: PD-L1 (human) (UniProt Q9NZQ7); assay: flow cytometry, MFI on PD-L1 cells over MFI on CD28 cells
# Target sequence in this assay (Q9NZQ7 19-290): as above
# Sequence of human CTLA-4 (human) (P16410 36-223): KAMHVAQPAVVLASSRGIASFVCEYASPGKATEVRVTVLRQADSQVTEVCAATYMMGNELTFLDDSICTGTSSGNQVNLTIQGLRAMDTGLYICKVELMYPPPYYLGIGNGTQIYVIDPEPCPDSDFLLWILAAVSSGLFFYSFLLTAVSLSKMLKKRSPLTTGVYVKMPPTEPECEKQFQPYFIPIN
# Sequence of human CTLA-4 (huCTLA4), on stably transduced CHO cells (human) (P16410 36-223): as above
# Sequence of CD80 WT IgV-Fc (Fc fusion) (chain): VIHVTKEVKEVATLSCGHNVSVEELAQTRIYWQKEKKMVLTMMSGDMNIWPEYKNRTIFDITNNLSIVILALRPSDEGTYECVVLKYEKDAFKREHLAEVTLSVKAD
substance,measurement,setting,value
variant CD80 IgV-Fc E35D/M43I/D46E/A71G/L85M (Fc fusion),MFI at 33.3 nM,[1],26900 MFI
same,MFI at 33.3 nM,[2],7140 MFI
variant CD80 IgV-Fc E35D/M47V/L85M/R94Q (Fc fusion),MFI at 33.3 nM,[1],23300 MFI
same,MFI at 33.3 nM,[3],23.7 MFI
variant CD80 IgV-Fc M43I/M47L/A71G (Fc fusion),MFI at 33.3 nM,[1],23300 MFI
same,MFI at 33.3 nM,[3],1000 MFI
same,MFI at 33.3 nM,[2],7760 MFI
CD80 L70Q/A91G/N144D ECD-Fc (Fc fusion),MFI,[4],6 MFI
CD80 WT IgV-Fc (Fc fusion),MFI at 33.3 nM,[5],43.9 MFI
same,MFI at 33.3 nM,[1],1920 MFI
same,MFI at 33.3 nM,[3],66 MFI
same,MFI at 33.3 nM,[6],1030 MFI
same,MFI at 33.3 nM,[7],95 MFI
same,MFI at 33.3 nM,[7]; record 2,41 MFI
same,MFI at 33.3 nM,[8],83 MFI
same,MFI at 33.3 nM,[9],26400 MFI
same,MFI at 33.3 nM,[10],44 MFI
same,MFI at 33.3 nM,[11],41.2 MFI
same,MFI at 33.3 nM,[12],1040 MFI
same,MFI at 33.3 nM,[2],70.3 MFI
same,MFI at 33.3 nM,[13],70.9 MFI
same,MFI at 33.3 nM,[14],1360 MFI
same,MFI at 33.3 nM,[15],43.6 MFI
CD80 E24G/L25P/L70Q/A91G/I118V/T120S/N152T ECD-Fc (Fc fusion),MFI,[16],26 MFI
same,MFI,[17],38 MFI
variant CD80 IgV-Fc E35D/M47V/I61V/L85M (Fc fusion),MFI at 33.3 nM,[1],28800 MFI
same,MFI at 33.3 nM,[3],274 MFI
same,MFI at 33.3 nM,[2],3050 MFI
WT CD80 ECD-Fc (Example 25) (Fc fusion),MFI,[4],70 MFI
CD80 A91G ECD-Fc (Fc fusion),MFI,[4],85 MFI
same,parental ratio,[4],1.21
same,MFI,[17],200 MFI
variant CD80 IgV-Fc E35D/M47V/N48K/L85M (Fc fusion),MFI at 33.3 nM,[3],413 MFI
same,MFI at 33.3 nM,[2],5660 MFI
CD80 K36E/I67T/L70Q/A91G/I118V/T120S/T130A/N152T ECD-Fc (Fc fusion),MFI,[16],8 MFI
CD80 IgV-Fc H18Y/E35D/D46E/M47I/V68M/R94L (Fc fusion),MFI at 33.3 nM,[12],19200 MFI
same,MFI at 33.3 nM,[13],2080 MFI
CD80 R29H/E52G/D90N/I118V/T120S/T130A ECD-Fc (Fc fusion),MFI,[16],66 MFI
same,MFI,[17],141 MFI
variant CD80 IgV-Fc E35D/M47V/T62A/A71D/K93E (Fc fusion),MFI at 33.3 nM,[18],693 MFI
same,MFI at 33.3 nM,[19],226000 MFI
CD80 IgV-Fc H18Y/E35D/M47L/V68M/E95V/L97Q (Fc fusion),MFI at 33.3 nM,[11],2600 MFI
same,MFI at 33.3 nM,[12],18000 MFI
same,MFI at 33.3 nM,[13],9630 MFI
CD80 IgV-Fc H18Y/E35D/V68M/L85M/R94Q (Fc fusion),Fold change to WT CD80,[11],23.3 fold
same,MFI at 33.3 nM,[11],962 MFI
same,MFI at 33.3 nM,[12],22000 MFI
same,Fold change to WT CD80,[13],131 fold
same,MFI at 33.3 nM,[13],9280 MFI
variant CD80 IgV-Fc Q33R/E35D/M47V/N48K/L85M/F92L (Fc fusion),MFI at 33.3 nM,[18],21400 MFI
same,MFI at 33.3 nM,[19],2680 MFI
variant CD80 IgV-Fc E35D/M47I/N48K/I61F (Fc fusion),MFI at 33.3 nM,[1],25900 MFI
same,MFI at 33.3 nM,[3],816 MFI
same,MFI at 33.3 nM,[2],5630 MFI
variant CD80 IgV-Fc I30V/E35D/M47V/A71G/A91V (Fc fusion),MFI at 33.3 nM,[18],43900 MFI
same,MFI at 33.3 nM,[19],205000 MFI
variant CD80 IgV-Fc V22A/E35D/M47L/A71G (Fc fusion),MFI at 33.3 nM,[1],21900 MFI
same,MFI at 33.3 nM,[3],990 MFI
same,MFI at 33.3 nM,[2],8170 MFI
variant CD80 IgV-Fc E35D/M43I/M47V/K89N (Fc fusion),MFI at 33.3 nM,[18],19200 MFI
same,MFI at 33.3 nM,[19],278000 MFI
CD80 M38V/T41D/M43I/W50G/D76G/V83A/K89E/I118V/T120S/I126V/T130A ECD-Fc (Fc fusion),MFI,[16],5 MFI
variant CD80 IgV-Fc H18Y/E35D/M47V/N48K (Fc fusion),MFI at 33.3 nM,[3],841 MFI
same,MFI at 33.3 nM,[2],6460 MFI
variant CD80 IgV-Fc E35D/M38T/D46E/M47V/N48S (Fc fusion),MFI at 33.3 nM,[18],19400 MFI
variant CD80 IgV-Fc E35D/M38T/M43V/M47V/N48R/L85Q (Fc fusion),MFI at 33.3 nM,[18],21800 MFI
same,MFI at 33.3 nM,[19],204000 MFI
variant CD80 IgV-Fc H18Y/E35D (Fc fusion),MFI at 33.3 nM,[1],26300 MFI
same,MFI at 33.3 nM,[3],479 MFI
same,MFI at 33.3 nM,[2],3530 MFI
WT CD80 ECD-Fc H22.6 (Fc fusion),MFI at 33.3 nM,[3],43 MFI
same,MFI at 33.3 nM,[2],46.3 MFI
variant CD80 IgV-Fc E35D/M43I/M47L/L85M (Fc fusion),MFI at 33.3 nM,[1],24600 MFI
same,MFI at 33.3 nM,[2],4880 MFI
variant CD80 IgV-Fc H18Y/A26E/M47L/V68M/D90G (Fc fusion),Fold change to WT CD80,[5],0.7 fold
same,MFI at 33.3 nM,[5],32 MFI
same,Ratio of PDL1:CD28,[20],737
same,Fold change to WT CD80,[14],21.1 fold
same,MFI at 33.3 nM,[14],28600 MFI
same,Fold change to WT CD80,[15],541 fold
same,MFI at 33.3 nM,[15],23600 MFI
variant CD80 IgV-Fc E35D/M47V/T62S/L85Q (Fc fusion),MFI at 33.3 nM,[1],31200 MFI
same,MFI at 33.3 nM,[3],99.4 MFI
variant CD80 IgV-Fc E35D/D46E/A91G (Fc fusion),MFI at 33.3 nM,[1],32200 MFI
same,MFI at 33.3 nM,[3],3450 MFI
same,MFI at 33.3 nM,[2],2820 MFI
variant CD80 IgV-Fc A26E/E35D/M47L/V68M/A71G/D90G (Fc fusion),Fold change to WT CD80,[5],50.4 fold
same,MFI at 33.3 nM,[5],2210 MFI
same,Ratio of PDL1:CD28,[20],13.7
same,Fold change to WT CD80,[14],16 fold
same,MFI at 33.3 nM,[14],21700 MFI
same,Fold change to WT CD80,[15],693 fold
same,MFI at 33.3 nM,[15],30200 MFI
CD80 M38T/L70Q/E77G/A91G/I118V/T120S/T130A/N152T ECD-Fc (Fc fusion),MFI,[16],61 MFI
CD80 IgV-Fc H18Y/E35D/V68M/A71G/R94Q/E95V (Fc fusion),MFI at 33.3 nM,[11],455 MFI
same,Fold change to WT CD80,[12],18.6 fold
same,MFI at 33.3 nM,[12],19400 MFI
same,Fold change to WT CD80,[13],25.9 fold
same,MFI at 33.3 nM,[13],1840 MFI
variant CD80 IgV-Fc E35D/M47L/A71G (Fc fusion),MFI at 33.3 nM,[1],20600 MFI
same,MFI at 33.3 nM,[2],6640 MFI
CD80 Y31H/T41G/M43L/L70Q/A91G/I118V/T120S/I126V/T130A ECD-Fc (Fc fusion),MFI,[4],6 MFI
variant CD80 IgV-Fc H18Y/E35D/M47L/V68M/A71G (Fc fusion),Fold change to WT CD80,[5],21.1 fold
same,MFI at 33.3 nM,[5],928 MFI
same,Ratio of PDL1:CD28,[20],32.7
same,Fold change to WT CD80,[14],17.4 fold
same,MFI at 33.3 nM,[14],23700 MFI
same,Fold change to WT CD80,[15],697 fold
same,MFI at 33.3 nM,[15],30400 MFI
CD80 IgV-Fc H18Y/E35D/M47L/Y53F/V68M/A71G/K93R/E95V (Fc fusion),MFI at 33.3 nM,[11],2190 MFI
same,MFI at 33.3 nM,[12],19800 MFI
same,MFI at 33.3 nM,[13],9340 MFI
variant CD80 IgV-Fc E35D/N48K/L72V (Fc fusion),MFI at 33.3 nM,[3],582 MFI
same,MFI at 33.3 nM,[2],3030 MFI
variant CD80 IgV-Fc H18Y/E35D/M47L/V68M/A71G/D90G (Fc fusion),Fold change to WT CD80,[5],63.6 fold
same,MFI at 33.3 nM,[5],2790 MFI
same,Ratio of PDL1:CD28,[20],10.7
same,Fold change to WT CD80,[14],14.6 fold
same,MFI at 33.3 nM,[14],19900 MFI
same,Fold change to WT CD80,[15],687 fold
same,MFI at 33.3 nM,[15],29900 MFI
CD80 L65H/D90G/T110A/F116L ECD-Fc (Fc fusion),MFI,[16],33 MFI
same,MFI,[17],121 MFI
